Target: Toll-like receptor 9 (rat (endogenous in AR4-2J))

blockade of H4 (5 mgL^-1)-induced calcium oscillations in AR4-2J cells by simultaneous perfusion of TLR9 antagonist ODN2088 (5 uM): 88%
Substance: Recombinant histone H4 (from UniProt P62805 1-103) (natural protein)

Reference: publication PMC6356355
